Experimental data taken from patent US7638324 (BURNHAM INSTITUTE FOR MEDICAL RESEARCH, dated 2009).

T1: Bcl-GS (yeast two-hybrid construct) (human, UniProt Q9BZR8 1-241)
T1 construct: Used in yeast two-hybrid assays
T1 sequence: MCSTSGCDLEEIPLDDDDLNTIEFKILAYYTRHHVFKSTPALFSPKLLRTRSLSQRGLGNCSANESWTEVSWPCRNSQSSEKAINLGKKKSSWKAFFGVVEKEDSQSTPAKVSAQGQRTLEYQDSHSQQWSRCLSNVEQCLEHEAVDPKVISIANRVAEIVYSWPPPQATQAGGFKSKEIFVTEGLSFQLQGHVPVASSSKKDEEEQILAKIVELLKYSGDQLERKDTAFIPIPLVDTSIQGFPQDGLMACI

B1: Bad (other, UniProt Q92934 1-168, looked up)
chain: MFQIPEFEPSEQEDSSSAERGLGPSPAGDGPSGSGKHHRQAPGLLWDASHQQEQPTSSSHHGGAGAVEIRSRHSSYPAGTEDDEGMGEEPSPFRGRSRSAPPNLWAAQRYGRELRRMSDEFVDSFKKGLPRPKSAGTATQMRQSSSWTRVFQSWWDRNLGRGSSAPSQ
B2: GFP-Bcl-GS (ΔBH3) (other)
chain: MCSTSGCDLEEIPLDDDDLNTIEFKILAYYTRHHVFKSTPALFSPKLLRTRSLSQRGLGNCSANESWTEVSWPCRNSQSSEKAINLGKKKSSWKAFFGVVEKEDSQSTPAKVSAQGQRTLEYQDSHSQQWSRCLSNVEQCLEHEAVDPKVISIANRVAEIVYSWPPPQATQAGGFKSKEIFVTEGLSFQLQGHVPVASSSKKDEEEQILAGSDTAFIPIPLVDTSIQGFPQDGLMACI
notes: The limits of the deletion would have to be derived from the primers; they are not guessed here; also called GFP-Bcl-GS (DBH3); mutant of Bcl-GS lacking the BH3 domain; not shown: N-terminal EGFP and the short vector linker of pEGFP-C1 (Clontech)
B3: Bak (other, UniProt Q16611 1-211, looked up)
chain: MASGQGPGPPRQECGEPALPSASEEQVAQDTEEVFRSYVFYRHQQEQEAEGVAAPADPEMVTLPLQPSSTMGQVGRQLAIIGDDINRRYDSEFQTMLQHLQPTAENAYEYFTKIATSLFESGINWGRVVALLGFGYRLALHVYQHGLTGFLGQVTRFVVDFMLHHCIARWIAQRGGWVAALNLGNGPILNVLVVLGVVLLGQFVVRRFFKS
B4: Bid (other, UniProt P55957 1-195, looked up)
chain: MDCEVNNGSSLRDECITNLLVFGFLQSCSDNSFRRELDALGHELPVLAPQWEGYDELQTDGNRSSHSRLGRIEADSESQEDIIRNIARHLAQVGDSMDRSIPPGLVNGLALQLRNTSRSEEDRNRDLATALEQLLQAYPRDMEKEKTMLVLALLLAKKVASHTPSLLRDVFHTTVNFINQNLRTYVRSLARNGMD

Legend:
[1] = target: T2, GFP-Bcl-GS (human, UniProt P42212 1-238 = GFP, limits assumed); experiment: co-immunoprecipitation from lysates of transiently transfected cells
T2 construct: Expressed by transient transfection and immunoprecipitated with polyclonal anti-GFP antibody; also called Bcl-G (short); wild-type Bcl-GS
Experimental: (§1) For co-immunoprecipitations and immunoblotting, immunoblotting was performed as described previously (Xu and Reed, supra., (1998); Zhang et al., supra., (2000)). For co-immunoprecipitations, cells were cultured in […] benzocarbonyl Valine Alanine Aspartate fluoromethyl-ketone (zVAD-fmk) to prevent apoptosis. Cells were suspended in lysis buffer (50 mM Tris-HCl, pH7.4; 150 mM NaCl; 20 mM EDTA; 50 mM NaF; 0.5% NP-40; 0.1 mM Na_3VO_4; 20 µg/ml Leupeptin; 20 µg/ml Aprotinin; 1 mM dithiothreitol (DTT); and 1 mM phenylmethylsulfonylfluoride (PMSF). Lysates (0.2 ml diluted into 1 ml final volume of lysis buffer) were cleared by incubation with 15 µl of protein G-Sepharose 4B (Zymed; South San Francisco Calif.) and then incubated with 15 µl of polyclonal anti-GFP antibody (Santa Cruz; Santa Cruz Calif.) and 15 µl of protein G at 4° C. overnight. Beads were then washed 4 times with 1.5 mls lysis buffer before boiling in Laemmli sample buffer and performing SDS-PAGE/immunoblotting.

[2] = target: Bcl-XL (UniProt Q07817 1-233); experiment: co-immunoprecipitation with anti-GFP antibody, anti-Bcl-XL immunoblot
Chain of Bcl-XL (Q07817 whole entry): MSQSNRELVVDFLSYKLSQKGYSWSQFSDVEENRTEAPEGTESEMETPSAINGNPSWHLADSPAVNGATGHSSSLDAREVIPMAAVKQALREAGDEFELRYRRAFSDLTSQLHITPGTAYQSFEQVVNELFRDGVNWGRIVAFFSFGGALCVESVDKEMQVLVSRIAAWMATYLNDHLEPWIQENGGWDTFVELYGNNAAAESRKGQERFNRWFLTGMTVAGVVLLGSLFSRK
Experimental: as §1

[3] = target: T1, Bcl-GS (yeast two-hybrid construct); experiment: yeast two-hybrid

| Binder | binding result [1] | binding result [2] | binding result [3] |
| --- | --- | --- | --- |
| B1 | no binding |  |  |
| B2 |  | no binding |  |
| B3 | no binding |  | no binding |
| B4 | no binding |  |  |
